Here are results for six molecules from patent US20090117590A1, “Human calcium sensitive potassium channel beta3 subunit proteins, encoding nucleic acid and uses thereof” (priority 1999, published 2009).

In test [1] the test system is α subunit of a human calcium sensitive potassium channel (human Slowpoke α). The experiment in a line: Electrophysiological analysis of β subunits co-expressed with the α subunit in Xenopus oocytes, inside-out patches. Type of test: cell-based. Particulars: for inactivation of calcium sensitive potassium currents: co-expressed with the α subunit; for V1/2 (half-maximal activation, Boltzmann fit to normalized conductances) / changes in the kinetics and voltage dependence of the channels formed by α subunits: inside-out patches, internal Ca2+ 30 μM; for V1/2 (half-maximal activation, Boltzmann fit to normalized conductances): α and β cRNAs 1:10 (β in excess), α subunit alone 20 mV; for shift of the voltage dependence compared to channels containing only α subunits: micromolar intracellular Ca2+; for changes in the kinetics and voltage dependence of the channels formed by α subunits: α and β cRNAs 1:10. Here is the method: The voltage clamp protocol consisted of a pre-pulse to −160 mV (200 ms), followed by 20 mV depolarizing steps from −80 to +80 mV (500 ms); holding potential was −80 mV; internal Ca^2+ was 30 μM. […] FIG. 7B: Boltzmann equations were fit to normalized conductances for the records shown in 7A, which were calculated from peak currents and plotted as function of test potential. V1/2 values are: 20 mV (α subunit alone); −55 mV (α+β2 subunit); 45.36 mV (α+β3α subunit); 20 mV (α+β3c subunit). […] Inactivation rates and fractional inactivating current were calculated as described in Example 2.
The β2, β3a, β3b, β3c, and β3d subunits of the human calcium sensitive potassium channel have been expressed in Xenopus oocytes, both by themselves and in combination with an α subunit of a large-conductance calcium-sensitive potassium channel (maxi-K channel). […] The rates of inactivation produced by β2, β3a and β3c are dependent upon voltage and internal calcium concentration; inactivation time constants reach a maximum at high depolarizations and high micromolar calcium for β2, β3a and β3c, τinact ˜30-40 ms at 80 mV with 30 μM intracellular Ca^2+. […] (McManus et al., 1995, Neuron 14:645-650).
Electrophysiological analysis: cRNAs were synthesized in vitro from plasmids encoding human Slowpoke α or the β2, β3a, β3b, β3c, or β3d subunits and injected into Xenopus oocytes (1.5 ng/oocyte of α subunit RNA +/−β subunit RNA at 1, 5, or 10× molar excess). Calcium sensitive potassium currents were recorded in inside-out patches. Recordings were performed under ionic conditions of symmetrical potassium. The standard pipette and bath solutions contained 116 mM potassium gluconate, 4 mM potassium chloride, 10 mM HEPES, pH 7.2. CaCl2 was added to the bath solution to give final concentrations of free ionized calcium of 3-30 μM, taking into account the stability constant for calcium gluconate (15.9 M^−1). Currents were recorded using an EPC-7 amplifier (HEKA). The pClamp6.0 program (Axon Instruments) was used to generate voltage-clamp commands for data acquisition, and for analysis. NPO-voltage relations were determined at 3, 10 and 30 μM bath calcium using two methods: (1) calculation of macroscopic conductance from peak or steady-state currents at test potentials (−80 to 80 mV), or (2) measurement or calculation of tail currents peaks (−80 mV) at test potentials. Boltzmann functions were fit to the data and used to derive the half-maximal activation parameter (V1/2). Maximal inactivation parameters (30 μM Ca^2+ and 80 mV) were calculated from current traces or averaged current traces. Inactivation rates were determined from single exponential fits. Fractional non-inactivating current was calculated as steady-state/peak current; fractional inactivating current was estimated as peak current minus steady-state current divided by peak current.

For test [2] the test system is unchanged. Particulars: previously described (McManus et al., 1995); cited from earlier work.

Where two headings read alike, the source gives them in different places.

B1: β3c: β3c subunit of human calcium sensitive potassium channel, amino acid sequence SEQ. ID. NO.:8 (protein)
chain: MFPLLYELTAVSPSPFPQRTAFPASGKKRETDYSDGDPLDVHKRLPSSTGEDRAVMLGFAMMGFSVLMFFLLGTTILKPFMLSIQREESTCTAIHTDIMDDWLDCAFTCGVHCHGQGKYPCLQVFVNLSHPGQKALLHYNEEAVQINPKCFYTPKCHQDRSDLLNSALDIKEFFDHKNGTPFSCFYSPASQSEDVILIKKYDQMAIFHCLFWPSLTLLGGALIVGMVRLTQHLSLLCEKYSTVVRDEVGGKVPYIEQHQFKLCIMRRSKGRAEKS
In the case of B1, in test [1], the “inactivation of calcium sensitive potassium currents” value was “induce inactivation”; the “V1/2 (half-maximal activation, Boltzmann fit to normalized conductances)” value is given as 20 mV; the “shift of the voltage dependence compared to channels containing only α subunits” value (“shift of the voltage dependence” for short) is “do not shift the voltage dependence”.

B2: β2: β2 subunit of human calcium sensitive potassium channel, amino acid sequence SEQ. ID. NO.:2 (protein, listed as Homo Sapiens)
chain: MFIWTSGRTSSSYRHDEKRNIYQKIRDHDLLDKRKTVTALKAGEDRAILLGLAMMVCSIMMYFLLGITLLRSYMQSVWTEESQCTLLNASITETFNCSFSCGPDCWKLSQYPCLQVYVNLTSSGEKLLLYHTEETIKINQKCSYIPKCGKNFEESMSLVNVVMENFRKYQHFSCYSDPEGNQKSVILTKLYSSNVLFHSLFWPTCMMAGGVAIVAMVKLTQYLSLLCERIQRINR
On to B2, for which, in test [1], the “inactivation of calcium sensitive potassium currents” value is listed as “induce inactivation” and the “V1/2 (half-maximal activation, Boltzmann fit to normalized conductances)” value is given as −55 mV. Moreover, the “shift in the voltage dependence of activation” value in test [1] (towards negative potentials, with 30 μM Ca2+ in the bath) was roughly 80 mV.

B3: β1: previously known human calcium sensitive potassium channel β1 subunit, SEQ. ID. NO.:11, GenBank U25138 (protein)
chain: MVKKLVMAQKRGETRALCLGVTMVVCAVITYYILVTTVLPLYQKSVWTQESKCHLIETNIRDQEELKGKKVPQYPCLWVNVSAAGRWAVLYHTEDTRDQNQQCSYIPGSVDNYQTARADVEKVRAKFQEQQVFYCFSAPRGNETSVLFQRLYGPQALLFSLFWPTFLLTGGLLIIAMVKSNQYLSILAAQK
With B3, in test [2], the “inactivation of calcium sensitive potassium currents” value is “do not induce inactivation”.

B4: β3d: β3d subunit of human calcium sensitive potassium channel, amino acid sequence SEQ. ID. NO.:10 (protein)
chain: MDFSPSSELGFHFVAFILLTRHRTAFPASGKKRETDYSDGDPLDVHKRLPSSTGEDRAVMLGFAMMGFSVLMFFLLGTTILKPFMLSIQREESTCTAIHTDIMDDWLDCAFTCGVHCHGQGKYPCLQVFVNLSHPGQKALLHYNEEAVQINPKCFYTPKCHQDRNDLLNSALDIKEFFDHKNGTPFSCFYSPASQSEDVILIKKYDQMAIFHCLFWPSLTLLGGALIVGMVRLTQHLSLLCEKYSTVVRDEVGGKVPYIEQHQFKLCIMRRSKGRAEKS
For the molecule B4, in test [1], the “changes in the kinetics and voltage dependence of the channels formed by α subunits” value was “did not induce noticeable changes”; the “shift of the voltage dependence” value was “do not shift the voltage dependence”.

B5: β3a: β3a subunit of human calcium sensitive potassium channel, amino acid sequence SEQ. ID. NO.:4 (protein, listed as Homo Sapiens)
chain: MQPFSIPVQITLQGSRRRQGRTAFPASGKKRETDYSDGDPLDVHKRLPSSTGEDRAVMLGFAMMGFSVLMFFLLGTTILKPFMLSIQREESTCTAIHTDIMDDWLDCAFTCGVHCHGQGKYPCLQVFVNLSHPGQKALLHYNEEAVQINPKCFYTPKCHQDRSDLLNSALDIKEFFDHKNGTPFSCFYSPASQSEDVILIKKYDQMAIFHCLFWPSLTLLGGALIVGMVRLTQHLSLLCEKYSTVVRDEVGGKVPYIEQHQFKLCIMRRSKGRAEKS
For B5, in test [1], the “inactivation of calcium sensitive potassium currents” value is listed as “induce inactivation”; the “V1/2 (half-maximal activation, Boltzmann fit to normalized conductances)” value is 45.36 mV; the “shift of the voltage dependence” value is “do not shift the voltage dependence”.

B6: β3b: β3b subunit of human calcium sensitive potassium channel, amino acid sequence SEQ. ID. NO.:6 (protein, listed as Homo Sapiens)
chain: MTAFPASGKKRETDYSDGDPLDVHKRLPSSTGEDRAVMLGFAMMGFSVLMFFLLGTTILKPFMLSIQREESTCTAIHTDIMDDWLDCAFTCGVHCHGQGKYPCLQVFVNLSHPGQKALLHYNEEAVQINPKCFYTPKCHQDRNDLLNSALDIKEFFDHKNGTPFSCFYSPASQSEDVILIKKYDQMAIFHCLFWPSLTLLGGALIVGMVRLTQHLSLLCEKYSTVVRDEVGGKVPYIEQHQFKLCIMRRSKGRAEKS
For B6, in test [1], the “changes in the kinetics and voltage dependence of the channels formed by α subunits” value was “did not induce noticeable changes”; the “shift of the voltage dependence” value is “do not shift the voltage dependence”.
